Reference: paper PMC9135631 (2022)

Columns and labels:
[1] = biological target: T1, Latrophilin-3 ADHD-related variant D615N (Lphn3^D615N) (human)
T1 chain: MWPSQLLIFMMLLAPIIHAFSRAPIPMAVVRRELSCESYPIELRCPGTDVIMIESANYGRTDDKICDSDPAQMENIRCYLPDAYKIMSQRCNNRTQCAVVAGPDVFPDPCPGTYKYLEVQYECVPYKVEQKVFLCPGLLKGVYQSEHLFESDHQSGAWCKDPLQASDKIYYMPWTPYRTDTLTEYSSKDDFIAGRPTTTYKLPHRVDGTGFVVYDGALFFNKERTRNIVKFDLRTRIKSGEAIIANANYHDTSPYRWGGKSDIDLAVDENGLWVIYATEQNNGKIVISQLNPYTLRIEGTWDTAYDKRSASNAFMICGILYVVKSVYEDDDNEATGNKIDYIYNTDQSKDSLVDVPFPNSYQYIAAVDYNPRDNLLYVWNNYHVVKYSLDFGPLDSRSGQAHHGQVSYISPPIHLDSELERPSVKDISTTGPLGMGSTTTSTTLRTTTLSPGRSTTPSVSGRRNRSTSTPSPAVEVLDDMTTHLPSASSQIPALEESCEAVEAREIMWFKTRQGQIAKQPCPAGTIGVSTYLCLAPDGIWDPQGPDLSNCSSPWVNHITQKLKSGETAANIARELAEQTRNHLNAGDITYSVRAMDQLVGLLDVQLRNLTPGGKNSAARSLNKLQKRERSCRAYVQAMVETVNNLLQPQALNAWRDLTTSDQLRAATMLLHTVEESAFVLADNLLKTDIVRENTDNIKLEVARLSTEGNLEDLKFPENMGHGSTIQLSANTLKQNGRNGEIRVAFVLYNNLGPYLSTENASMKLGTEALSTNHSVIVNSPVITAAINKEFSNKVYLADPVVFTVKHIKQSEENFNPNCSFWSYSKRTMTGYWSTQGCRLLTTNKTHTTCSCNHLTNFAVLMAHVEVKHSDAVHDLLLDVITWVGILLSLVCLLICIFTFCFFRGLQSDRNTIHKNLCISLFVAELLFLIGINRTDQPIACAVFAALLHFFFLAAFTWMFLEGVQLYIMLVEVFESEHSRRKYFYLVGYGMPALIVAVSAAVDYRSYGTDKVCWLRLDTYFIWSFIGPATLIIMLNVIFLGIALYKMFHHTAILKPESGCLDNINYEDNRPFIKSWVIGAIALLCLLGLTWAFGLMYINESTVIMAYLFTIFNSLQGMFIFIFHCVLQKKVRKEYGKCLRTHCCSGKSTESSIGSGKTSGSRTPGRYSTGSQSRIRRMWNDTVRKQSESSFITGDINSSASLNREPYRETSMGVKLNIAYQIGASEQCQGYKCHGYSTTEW

[2] = biological target: T2, Latrophilin-3 ADHD-related variant T783M (Lphn3^T783M) (human)
T2 chain: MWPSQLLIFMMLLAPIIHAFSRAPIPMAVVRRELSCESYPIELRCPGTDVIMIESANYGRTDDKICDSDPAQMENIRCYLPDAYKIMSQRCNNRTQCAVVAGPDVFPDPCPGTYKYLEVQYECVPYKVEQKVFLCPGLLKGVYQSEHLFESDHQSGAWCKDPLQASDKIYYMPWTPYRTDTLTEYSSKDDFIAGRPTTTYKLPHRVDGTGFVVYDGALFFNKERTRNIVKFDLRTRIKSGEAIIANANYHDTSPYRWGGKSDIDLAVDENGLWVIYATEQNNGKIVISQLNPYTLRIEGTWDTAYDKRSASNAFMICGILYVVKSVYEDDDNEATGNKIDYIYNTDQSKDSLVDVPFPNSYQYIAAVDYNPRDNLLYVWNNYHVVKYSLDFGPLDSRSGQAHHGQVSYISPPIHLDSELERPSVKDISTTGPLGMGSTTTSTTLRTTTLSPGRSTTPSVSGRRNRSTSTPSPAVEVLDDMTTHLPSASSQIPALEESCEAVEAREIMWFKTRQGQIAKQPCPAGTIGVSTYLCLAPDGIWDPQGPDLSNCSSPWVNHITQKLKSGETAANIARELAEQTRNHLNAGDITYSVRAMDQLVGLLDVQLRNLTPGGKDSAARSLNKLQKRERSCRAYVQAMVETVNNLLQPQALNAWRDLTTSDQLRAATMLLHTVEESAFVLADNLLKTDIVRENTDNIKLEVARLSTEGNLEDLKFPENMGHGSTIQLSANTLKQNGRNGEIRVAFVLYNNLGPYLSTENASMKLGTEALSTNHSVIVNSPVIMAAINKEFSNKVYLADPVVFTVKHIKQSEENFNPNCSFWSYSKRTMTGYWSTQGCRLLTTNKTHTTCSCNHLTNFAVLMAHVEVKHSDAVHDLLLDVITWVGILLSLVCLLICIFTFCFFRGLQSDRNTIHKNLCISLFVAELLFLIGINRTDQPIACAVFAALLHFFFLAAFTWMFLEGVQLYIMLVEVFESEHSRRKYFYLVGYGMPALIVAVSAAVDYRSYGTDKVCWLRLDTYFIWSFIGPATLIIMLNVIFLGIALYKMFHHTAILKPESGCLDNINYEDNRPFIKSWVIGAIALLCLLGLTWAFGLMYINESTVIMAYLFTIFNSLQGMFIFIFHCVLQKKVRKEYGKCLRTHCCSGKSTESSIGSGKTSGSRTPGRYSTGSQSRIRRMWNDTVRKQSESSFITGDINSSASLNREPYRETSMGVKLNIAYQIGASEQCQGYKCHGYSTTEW

- Kd [1]: 1.25 nM
- Kd [2]: 1.22 nM
B1: soluble FLRT3 extracellular domain fused to the constant fraction of human IgG (FLRT3^ECD-Fc) (Fc fusion)
chain: KSCPSVCRCDAGFIYCNDRFLTSIPTGIPEDATTLYLQNNQINNAGIPSDLKNLLKVERIYLYHNSLDEFPTNLPKYVKELHLQENNIRTITYDSLSKIPYLEELHLDDNSVSAVSIEEGAFRDSNYLRLLFLSRNHLSTIPWGLPRTIEELRLDDNRISTISSPSLQGLTSLKRLVLDGNLLNNHGLGDKVFFNLVNLTELSLVRNSLTAAPVNLPGTNLRKLYLQDNHINRVPPNAFSYLRQLYRLDMSNNNLSNLPQGIFDDLDNITQLILRNNPWYCGCKMKWVRDWLQSLPVKVNVRGLMCQAPEKVRGMAIKDLNAELFDCKDSGIVSTIQITTAIPNTVYPAQGQWPAPVTKQPDIKNPKLTKDHQTTGSPSRKTITITVKSVTSDTIHISWKLALPMTALRLSWLKLGHSPAFGSITETIVTGERSEYLVTALEPDSPYKVCMVPMETSNLYLFDETPVCIETETAPLRMYNPTTTLNREQEKEPYKNPNLP
modifications: HA/Flag epitopes left out; isoform assumed; signal peptide removed and GPS autoproteolysis expected
